Blank lines part the entries; values can stand above or below the molecule they belong to.
Tests used:
[1] = target: RNF4 C55S, C59S tagged with glycine-cysteine at its C terminus (RNF4-C196); assay: cross-linking; disulfide dimer formation of RNF4-C196; 0.062, 0.12, 0.25, 0.5 and 1 μM protein, room temperature, 2 hr, no reducing agents, no SUMO; nonreducing SDS-PAGE and western blotting with an RNF4 antibody; the species is sensitive to DTT
[2] = target: T1, RNF4 wild type, recombinant, with N-terminal fusions of ECFP or YFP, O88846; assay: FRET or BRET; in vitro FRET in the absence of poly-SUMO-2; YFP-RNF4 fixed at 0.5 μM, ECFP-RNF4 increased in 0.05 μM increments from 0 to 0.5 μM; triplicates; fit to a single binding site model; monomer to dimer; conditions: remark: other sources report otherwise
T1 chain: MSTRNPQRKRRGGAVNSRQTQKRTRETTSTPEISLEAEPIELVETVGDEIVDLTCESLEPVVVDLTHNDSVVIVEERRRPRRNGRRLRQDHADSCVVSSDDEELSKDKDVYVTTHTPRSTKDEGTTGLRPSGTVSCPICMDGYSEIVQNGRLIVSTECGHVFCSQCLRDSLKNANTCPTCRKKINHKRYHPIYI

[3] = target: T1, RNF4 wild type, recombinant, with …; assay: FRET or BRET; in vitro FRET in the presence of poly-SUMO-2; YFP-RNF4 fixed at 0.5 μM, ECFP-RNF4 increased in 0.05 μM increments from 0 to 0.5 μM; triplicates; apparent Kd from a fit to a single binding site model; conditions: remark: other sources report otherwise
FRET; with polySUMO-2 = target: the molecule itself; assay: FRET; with polySUMO-2

- stoichiometry N [1]: 2
Molecule: RNF4 C55S, C59S tagged with glycine-cysteine at its C terminus (RNF4-C196) (enzyme)

- Kd [2]: 180 nM
- Kd [3]: 60 nM
B1: RNF4 wild type, recombinant, with N-terminal fusions of ECFP or YFP, O88846 1-194 (enzyme)
chain: MSTRNPQRKRRGGAVNSRQTQKRTRETTSTPEISLEAEPIELVETVGDEIVDLTCESLEPVVVDLTHNDSVVIVEERRRPRRNGRRLRQDHADSCVVSSDDEELSKDKDVYVTTHTPRSTKDEGTTGLRPSGTVSCPICMDGYSEIVQNGRLIVSTECGHVFCSQCLRDSLKNANTCPTCRKKINHKRYHPIYI

B2: RNF4 I194A, dimerization-deficient mutant, recombinant, with N-terminal fusions of ECFP or YFP (enzyme)
chain: MSTRNPQRKRRGGAVNSRQTQKRTRETTSTPEISLEAEPIELVETVGDEIVDLTCESLEPVVVDLTHNDSVVIVEERRRPRRNGRRLRQDHADSCVVSSDDEELSKDKDVYVTTHTPRSTKDEGTTGLRPSGTVSCPICMDGYSEIVQNGRLIVSTECGHVFCSQCLRDSLKNANTCPTCRKKINHKRYHPIYA
- Kd (FRET; with polySUMO-2): 166 nM
